What was measured:
[1] = molecular target: T1, human ADAM9 (huADAM9) on cells (human, UniProt Q13443 206-819); experiment: FACS, 300-19 cells expressing human ADAM9
T1 construct: The pro-domain is said to be cleaved (Arg-205/Ala-206) in the mature protein; also called Cho-K/huADAM9; Cho-K/hu ADAM9.2
T1 sequence: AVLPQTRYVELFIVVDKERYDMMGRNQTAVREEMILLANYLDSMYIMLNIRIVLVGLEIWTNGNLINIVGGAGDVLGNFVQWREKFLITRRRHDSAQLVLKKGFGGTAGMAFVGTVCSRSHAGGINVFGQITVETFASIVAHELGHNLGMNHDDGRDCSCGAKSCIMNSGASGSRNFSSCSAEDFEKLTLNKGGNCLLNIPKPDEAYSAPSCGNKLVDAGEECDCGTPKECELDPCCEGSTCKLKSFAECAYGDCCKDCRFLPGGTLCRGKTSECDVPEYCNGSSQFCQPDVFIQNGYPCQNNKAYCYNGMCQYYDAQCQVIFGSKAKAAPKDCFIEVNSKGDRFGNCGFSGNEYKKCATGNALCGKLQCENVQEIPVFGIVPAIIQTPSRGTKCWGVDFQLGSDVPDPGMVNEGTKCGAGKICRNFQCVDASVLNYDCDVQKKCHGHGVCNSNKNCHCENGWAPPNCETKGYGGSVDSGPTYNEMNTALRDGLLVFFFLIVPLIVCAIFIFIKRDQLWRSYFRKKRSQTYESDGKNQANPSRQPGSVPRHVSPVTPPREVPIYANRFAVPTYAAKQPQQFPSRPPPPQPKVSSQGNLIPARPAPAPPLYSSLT

[2] = molecular target: T2, cynomolgus monkey ADAM9 (cynoADAM9) on cells (cynomolgus monkey, UniProt Q13443 206-819 (human entry)); experiment: FACS, 300-19 cells expressing cynomolgus ADAM9
T2 construct: also called Cho-K/cynoADAM9 clone 2; Cho-K/cynoADAM9 clone #16
T2 chain: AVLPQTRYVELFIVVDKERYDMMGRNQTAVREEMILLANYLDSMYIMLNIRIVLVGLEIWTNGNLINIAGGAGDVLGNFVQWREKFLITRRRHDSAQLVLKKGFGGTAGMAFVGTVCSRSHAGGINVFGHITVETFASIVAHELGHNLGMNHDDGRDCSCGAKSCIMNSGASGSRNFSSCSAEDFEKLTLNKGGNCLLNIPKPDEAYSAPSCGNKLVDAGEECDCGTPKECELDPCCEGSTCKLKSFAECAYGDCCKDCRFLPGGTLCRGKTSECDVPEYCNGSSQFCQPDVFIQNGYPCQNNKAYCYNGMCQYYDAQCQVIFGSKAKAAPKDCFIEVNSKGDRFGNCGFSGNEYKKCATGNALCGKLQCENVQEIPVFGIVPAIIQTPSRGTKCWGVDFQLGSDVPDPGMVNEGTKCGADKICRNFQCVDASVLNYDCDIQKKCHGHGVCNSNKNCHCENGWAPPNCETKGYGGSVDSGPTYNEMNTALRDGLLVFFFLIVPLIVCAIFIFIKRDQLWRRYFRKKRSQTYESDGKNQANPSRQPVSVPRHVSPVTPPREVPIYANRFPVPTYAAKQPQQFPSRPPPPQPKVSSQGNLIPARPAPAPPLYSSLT

[3] = molecular target: T3, His-tagged soluble human ADAM9 (shADAM9-His) (human, UniProt Q13443 206-697); experiment: SPR (BIACORE), antibody captured, huADAM9-His in flow
T3 construct: Contains an extracellular portion of human ADAM9; also called huADAM9-His; His peptide-tagged soluble huADAM9
T3 sequence: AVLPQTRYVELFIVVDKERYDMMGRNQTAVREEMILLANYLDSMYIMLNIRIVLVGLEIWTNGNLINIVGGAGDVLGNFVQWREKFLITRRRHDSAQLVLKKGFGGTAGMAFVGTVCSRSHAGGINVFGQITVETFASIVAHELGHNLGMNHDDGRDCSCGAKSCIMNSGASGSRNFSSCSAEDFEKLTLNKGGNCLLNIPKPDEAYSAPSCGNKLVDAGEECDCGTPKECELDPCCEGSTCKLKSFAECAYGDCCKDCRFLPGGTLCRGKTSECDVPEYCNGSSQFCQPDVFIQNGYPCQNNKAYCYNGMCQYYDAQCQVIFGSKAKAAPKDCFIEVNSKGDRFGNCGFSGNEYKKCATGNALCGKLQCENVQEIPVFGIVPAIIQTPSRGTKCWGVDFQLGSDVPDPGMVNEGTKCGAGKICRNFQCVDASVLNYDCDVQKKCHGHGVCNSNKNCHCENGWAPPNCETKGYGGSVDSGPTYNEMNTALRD

[4] = molecular target: T2, cynomolgus monkey ADAM9 (cynoADAM9) on …; experiment: FACS, EC50 on 300-19 cynoADAM9 cells over EC50 on 300-19 huADAM9 cells
huFcRn [5] = molecular target: T4, huFcRn (human, UniProt P55899 24-297; P61769 21-119, limits assumed); experiment: SPR at pH 6.0: 250 nM and 1000 nM huFcRn passed over captured antibody
T4 construct: source and construct are not described; also called human FcRn
T4 sequence (P55899 24-297 limits assumed, chain 1 of 2): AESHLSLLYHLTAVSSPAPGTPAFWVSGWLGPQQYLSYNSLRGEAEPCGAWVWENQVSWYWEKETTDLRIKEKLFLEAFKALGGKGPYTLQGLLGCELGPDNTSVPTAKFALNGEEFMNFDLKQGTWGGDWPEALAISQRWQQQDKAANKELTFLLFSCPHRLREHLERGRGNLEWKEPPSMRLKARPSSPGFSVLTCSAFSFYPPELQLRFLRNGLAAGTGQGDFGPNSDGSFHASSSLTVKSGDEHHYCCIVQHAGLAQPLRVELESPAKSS
T4 sequence (P61769 21-119 limits assumed, chain 2 of 2): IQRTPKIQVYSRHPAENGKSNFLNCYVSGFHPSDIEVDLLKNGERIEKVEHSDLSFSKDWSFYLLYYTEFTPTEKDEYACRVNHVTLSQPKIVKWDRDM

[6] = molecular target: T3, His-tagged soluble human ADAM9 …; experiment: ELISA: His-tagged soluble huADAM9 (0.5 µg/mL) captured by plate-coated anti-His antibody; serial dilutions of antibody about 0.2-500 ng/mL; abs @450nm
[7] = molecular target: T3, His-tagged soluble human ADAM9 …; experiment: SPR (BIACORE), antibody captured on anti-human Fc, shADAM9-His 6.25-100 nM, 1:1 Langmuir
[8] = molecular target: T2, cynomolgus monkey ADAM9 (cynoADAM9) on …; experiment: FACS, 300-19 cells expressing cynomolgus ADAM9; FACS, 300-19 cells expressing cynoADAM9, dilution series, 4° C.
[9] = molecular target: T2, cynomolgus monkey ADAM9 (cynoADAM9) on …; experiment: FACS, EC50 on 300-19 cynoADAM9 cells over EC50 on 300-19 huADAM9 cells; Unitless ratio of cyno EC50 to human EC50 by FACS on 300-19 cells
cyno FcRn = molecular target: T5, cyno FcRn (cynomolgus monkey, UniProt Q8SPV9 24-297; Q8SPW0 21-119, limits assumed); experiment: FcRn binding, method not described
T5 construct: source and construct are not described
T5 sequence (Q8SPV9 24-297 limits assumed, chain 1 of 2): as the sequence (P55899 24-297 limits assumed, chain 1 of 2) above, with N39D, E44Q, G99S, S189G, S190N, L217M, S269T counted along it
T5 sequence (Q8SPW0 21-119 limits assumed, chain 2 of 2): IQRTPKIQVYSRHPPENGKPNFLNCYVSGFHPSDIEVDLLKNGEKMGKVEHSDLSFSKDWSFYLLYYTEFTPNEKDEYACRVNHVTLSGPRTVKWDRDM

huFcRn [10] = molecular target: T4, huFcRn; experiment: SPR at pH 6.0: 25 nM and 100 nM antibody passed over immobilized FcRn (species of the FcRn not named in the legend); bivalent analyte

Row | Binder | EC50 [1] | EC50 [2] | Kd [3] | koff [3] | kon [3] | cyno/human (ratio of EC50) [4] | Kd (huFcRn [5]) | EC50 (read off the curve) [6] | Kd [7] | EC50 [8] | cyno/human (ratio of EC50) [9] | binding result (cyno FcRn) | Kd (huFcRn [10])
1 | hMAB-A (2I.2) (antibody, human IgG1, kappa, Kappa light chain, wild-type IgG1 heavy chain constant regions; also called MAB-A VH(2I); MAB-A VH(2I.2)) heavy: not shown light: DIVMTQSPDSLAVSLGERATISCKASQSVDYSGDSYMNWYQQKPGQPPKLLIYAASDLESGIPARFSGSGSGTDFTLTISSLEPEDFATYYCQQSHEDPFTFGQGTKLEIKRTVAAPSVFIFPPSDEQLKSGTASVVCLLNNFYPREAKVQWKVDNALQSGNSQESVTEQDSKDSTYSLSSTLTLSKADYEKHKVYACEVTHQGLSSPVTKSFNRGEC | 1.49 nM | 4.1 nM | 0.4 nM | 0.00023 s⁻¹ | 660000 M⁻¹ s⁻¹ | 3 | 3400 nM | ~9 ng/mL |  |  |  |  | 
2 | hMAB-A (2.2) (antibody, human IgG1, kappa, V domains shown, IgG1 kappa; also called huMAB-A(2.2); parental hMAB-A (2.2)) VH: EVQLVESGGGLVKPGGSLRLSCAASGFTFSSYWMHWVRQAPGKGLEWVGEIIPIFGHTNYNEKFKSRFTISLDNSKNTLYLQMGSLRAEDTAVYYCARGGYYYYGSRDYFDYWGQGTTVTVSS VL: DIVMTQSPDSLAVSLGERATISCKASQSVDYSGDSYMNWYQQKPGQPPKLLIYAASDLESGIPARFSGSGSGTDFTLTISSLEPEDFATYYCQQSHEDPFTFGQGTKLEIKR | 0.69 nM |  | 0.6 nM | 0.00055 s⁻¹ | 900000 M⁻¹ s⁻¹ |  |  |  | 1.4 nM | 32.7 nM | 47 |  | 
3 | hMAB-A (2I.2)(AA/C) (antibody, Last residue X is lysine or absent; also called L234A/L235A/S442C Fc variant of hMAB-A (2I.2)) heavy: EVQLVESGGGLVKPGGSLRLSCAASGFTFSSYWMHWVRQAPGKGLEWVGEIIPIFGHTNYNEKFKSRFTISLDNSKNTLYLQMGSLRAEDTAVYYCARGGYYYYPRQGFLDYWGQGTTVTVSSASTKGPSVFPLAPSSKSTSGGTAALGCLVKDYFPEPVTVSWNSGALTSGVHTFPAVLQSSGLYSLSSVVTVPSSSLGTQTYICNVNHKPSNTKVDKRVEPKSCDKTHTCPPCPAPEAAGGPSVFLFPPKPKDTLMISRTPEVTCVVVDVSHEDPEVKFNWYVDGVEVHNAKTKPREEQYNSTYRVVSVLTVLHQDWLNGKEYKCKVSNKALPAPIEKTISKAKGQPREPQVYTLPPSREEMTKNQVSLTCLVKGFYPSDIAVEWESNGQPENNYKTTPPVLDSDGSFFLYSKLTVDKSRWQQGNVFSCSVMHEALHNHYTQKSLCLSPGK light: DIVMTQSPDSLAVSLGERATISCKASQSVDYSGDSYMNWYQQKPGQPPKLLIYAASDLESGIPARFSGSGSGTDFTLTISSLEPEDFATYYCQQSHEDPFTFGQGTKLEIKRTVAAPSVFIFPPSDEQLKSGTASVVCLLNNFYPREAKVQWKVDNALQSGNSQESVTEQDSKDSTYSLSSTLTLSKADYEKHKVYACEVTHQGLSSPVTKSFNRGEC |  |  |  |  |  |  |  | ~9 ng/mL |  |  |  |  | 
4 | hMAB-A(2I.2)-S442C (antibody, IgG1 kappa with engineered Cys S442C (EU index); also called hMAB-A (2I.2)(C)) heavy: not shown light: DIVMTQSPDSLAVSLGERATISCKASQSVDYSGDSYMNWYQQKPGQPPKLLIYAASDLESGIPARFSGSGSGTDFTLTISSLEPEDFATYYCQQSHEDPFTFGQGTKLEIKRTVAAPSVFIFPPSDEQLKSGTASVVCLLNNFYPREAKVQWKVDNALQSGNSQESVTEQDSKDSTYSLSSTLTLSKADYEKHKVYACEVTHQGLSSPVTKSFNRGEC | 1.33 nM | 3.8 nM |  |  |  | 3 |  | ~9 ng/mL |  |  |  |  | 
5 | hMAB-A(2I.2)-YTE (antibody, human IgG1, kappa, Last residue X is lysine or absent; also called hMAB-A(2I.2) with the YTE mutation (M252Y, S254T, T256E)) heavy: EVQLVESGGGLVKPGGSLRLSCAASGFTFSSYWMHWVRQAPGKGLEWVGEIIPIFGHTNYNEKFKSRFTISLDNSKNTLYLQMGSLRAEDTAVYYCARGGYYYYPRQGFLDYWGQGTTVTVSSASTKGPSVFPLAPSSKSTSGGTAALGCLVKDYFPEPVTVSWNSGALTSGVHTFPAVLQSSGLYSLSSVVTVPSSSLGTQTYICNVNHKPSNTKVDKRVEPKSCDKTHTCPPCPAPELLGGPSVFLFPPKPKDTLYITREPEVTCVVVDVSHEDPEVKFNWYVDGVEVHNAKTKPREEQYNSTYRVVSVLTVLHQDWLNGKEYKCKVSNKALPAPIEKTISKAKGQPREPQVYTLPPSREEMTKNQVSLTCLVKGFYPSDIAVEWESNGQPENNYKTTPPVLDSDGSFFLYSKLTVDKSRWQQGNVFSCSVMHEALHNHYTQKSLSLSPGK light: DIVMTQSPDSLAVSLGERATISCKASQSVDYSGDSYMNWYQQKPGQPPKLLIYAASDLESGIPARFSGSGSGTDFTLTISSLEPEDFATYYCQQSHEDPFTFGQGTKLEIKRTVAAPSVFIFPPSDEQLKSGTASVVCLLNNFYPREAKVQWKVDNALQSGNSQESVTEQDSKDSTYSLSSTLTLSKADYEKHKVYACEVTHQGLSSPVTKSFNRGEC |  |  |  |  |  |  | 730 nM |  |  |  |  | binds | 7.2 nM
